We go through one molecule from PMC3861647, “Characterization of Fibrinogen Binding by Glycoproteins Srr1 and Srr2 of Streptococcus agalactiae*” (The Journal of Biological Chemistry, 2013).

The target in test [1] is T1, Srr1-BR (untagged recombinant binding region of Srr1) (Streptococcus agalactiae (strain NCTC …)).
T1 construct: I took it to be this one; also called untagged Srr1-BR; recombinant Srr1; source: E. coli, purified (nickel-nitrilotriacetic acid or anti-FLAG M2-agarose)
Put plainly: SPR; BIAcore T100; fibrinogen amine-coupled to a CM5 chip; Srr1-BR or Srr2-BR 1.25–160 μM flowed at 10 μl/min; KD from equilibrium responses. Particulars: both partners purified. A general note: SPR reads the build-up and loss of mass on a sensor chip optically.

Test [2] addresses T2, Srr2-BR (untagged recombinant binding region of Srr2) (Streptococcus agalactiae (strain COH1)).
T2 construct: I took it to be this one; also called untagged Srr2-BR; recombinant Srr2; source: E. coli, purified (nickel-nitrilotriacetic acid or anti-FLAG M2-agarose)
The test is described as above. To be noted: both partners purified.

T1 sequence (P02671 36-866): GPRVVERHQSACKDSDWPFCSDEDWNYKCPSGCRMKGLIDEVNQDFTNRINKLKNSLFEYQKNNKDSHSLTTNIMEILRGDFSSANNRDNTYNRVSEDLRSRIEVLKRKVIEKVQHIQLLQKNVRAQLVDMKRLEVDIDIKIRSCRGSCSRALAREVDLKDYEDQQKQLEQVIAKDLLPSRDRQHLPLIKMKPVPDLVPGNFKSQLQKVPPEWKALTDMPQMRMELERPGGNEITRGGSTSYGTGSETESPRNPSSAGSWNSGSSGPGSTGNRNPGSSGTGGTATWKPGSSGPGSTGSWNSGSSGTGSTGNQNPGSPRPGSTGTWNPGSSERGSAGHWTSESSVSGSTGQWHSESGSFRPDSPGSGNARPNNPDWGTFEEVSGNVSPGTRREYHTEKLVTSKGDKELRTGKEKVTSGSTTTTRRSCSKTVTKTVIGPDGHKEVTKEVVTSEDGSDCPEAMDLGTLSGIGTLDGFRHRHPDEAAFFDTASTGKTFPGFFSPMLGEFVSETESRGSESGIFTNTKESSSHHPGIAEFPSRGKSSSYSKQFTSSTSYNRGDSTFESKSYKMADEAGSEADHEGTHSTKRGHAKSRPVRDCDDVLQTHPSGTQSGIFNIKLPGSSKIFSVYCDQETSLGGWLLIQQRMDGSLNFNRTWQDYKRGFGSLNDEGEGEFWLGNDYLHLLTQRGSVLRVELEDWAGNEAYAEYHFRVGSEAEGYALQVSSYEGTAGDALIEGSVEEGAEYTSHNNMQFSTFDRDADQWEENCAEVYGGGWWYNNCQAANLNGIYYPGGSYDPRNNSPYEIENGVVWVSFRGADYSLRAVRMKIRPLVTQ
T2 sequence (P02671 36-866): as above

B1: purified human fibrinogen (complex)
chain 1: ADSGEGDFLAEGGGVRGPRVVERHQSACKDSDWPFCSDEDWNYKCPSGCRMKGLIDEVNQDFTNRINKLKNSLFEYQKNNKDSHSLTTNIMEILRGDFSSANNRDNTYNRVSEDLRSRIEVLKRKVIEKVQHIQLLQKNVRAQLVDMKRLEVDIDIKIRSCRGSCSRALAREVDLKDYEDQQKQLEQVIAKDLLPSRDRQHLPLIKMKPVPDLVPGNFKSQLQKVPPEWKALTDMPQMRMELERPGGNEITRGGSTSYGTGSETESPRNPSSAGSWNSGSSGPGSTGNRNPGSSGTGGTATWKPGSSGPGSTGSWNSGSSGTGSTGNQNPGSPRPGSTGTWNPGSSERGSAGHWTSESSVSGSTGQWHSESGSFRPDSPGSGNARPNNPDWGTFEEVSGNVSPGTRREYHTEKLVTSKGDKELRTGKEKVTSGSTTTTRRSCSKTVTKTVIGPDGHKEVTKEVVTSEDGSDCPEAMDLGTLSGIGTLDGFRHRHPDEAAFFDTASTGKTFPGFFSPMLGEFVSETESRGSESGIFTNTKESSSHHPGIAEFPSRGKSSSYSKQFTSSTSYNRGDSTFESKSYKMADEAGSEADHEGTHSTKRGHAKSRPV
chain 2: QGVNDNEEGFFSARGHRPLDKKREEAPSLRPAPPPISGGGYRARPAKAAATQKKVERKAPDAGGCLHADPDLGVLCPTGCQLQEALLQQERPIRNSVDELNNNVEAVSQTSSSSFQYMYLLKDLWQKRQKQVKDNENVVNEYSSELEKHQLYIDETVNSNIPTNLRVLRSILENLRSKIQKLESDVSAQMEYCRTPCTVSCNIPVVSGKECEEIIRKGGETSEMYLIQPDSSVKPYRVYCDMNTENGGWTVIQNRQDGSVDFGRKWDPYKQGFGNVATNTDGKNYCGLPGEYWLGNDKISQLTRMGPTELLIEMEDWKGDKVKAHYGGFTVQNEANKYQISVNKYRGTAGNALMDGASQLMGENRTMTIHNGMFFSTYDRDNDGWLTSDPRKQCSKEDGGGWWYNRCHAANPNGRYYWGGQYTWDMAKHGTDDGVVWMNWKGSWYSMRKMSMKIRPFFPQQ
chain 3: YVATRDNCCILDERFGSYCPTTCGIADFLSTYQTKVDKDLQSLEDILHQVENKTSEVKQLIKAIQLTYNPDESSKPNMIDAATLKSRKMLEEIMKYEASILTHDSSIRYLQEIYNSNNQKIVNLKEKVAQLEAQCQEPCKDTVQIHDITGKDCQDIANKGAKQSGLYFIKPLKANQQFLVYCEIDGSGNGWTVFQKRLDGSVDFKKNWIQYKEGFGHLSPTGTTEFWLGNEKIHLISTQSAIPYALRVELEDWNGRTSTADYAMFKVGPEADKYRLTYAYFAGGDAGDAFDGFDFGDDPSDKFFTSHNGMQFSTWDNDNDKFEGNCAEQDGSGWWMNKCHAGHLNGVYYQGGTYSKASTPNGYDNGIIWATWKTRWYSMKKTTMKIIPFNRLTIGEGQQHHLGGAKQAGDV
modifications: plasma-derived disulfide-linked hexamer (AαBβγ)2, N-glycosylated; Aα taken as the 610-residue circulating form (paper's Aα(1-610)), γ as the major γA form with the C-terminus printed in the text …
As usually defined, the Kd is a measure of binding affinity in units of concentration. For B1, the Kd was 21 µM in test [1] and 3.7 µM in test [2].
